Laboratory results as given in patent US20130324704A1 (published 2013).
Residue numbers refer to the chain shown, from its start.

T1: Mouse EGFL7 (mEGFL7-CB-His) (mouse, UniProt Q9QXT5 22-275)
T1 construct: Limits of the construct and the CB(-His) tag are not described; also called murine EGFL7
T1 sequence: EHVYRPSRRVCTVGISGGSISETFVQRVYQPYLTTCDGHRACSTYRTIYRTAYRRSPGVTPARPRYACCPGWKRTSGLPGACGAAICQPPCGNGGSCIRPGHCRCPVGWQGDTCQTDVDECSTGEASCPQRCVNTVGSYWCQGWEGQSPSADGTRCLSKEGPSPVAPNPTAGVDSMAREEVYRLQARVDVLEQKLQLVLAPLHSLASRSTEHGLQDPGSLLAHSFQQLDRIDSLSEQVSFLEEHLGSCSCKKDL

B1: 4F11.v6, IgG (antibody, V domains shown)
VH: EVQLVESGGGLVQPGGSLRLSCAASGHTFTTYGMSWVRQAPGKGLEWVGWINTHSGVPTYADDFKGRFTISRDNSKNTVYLQMNSLRAEDTAVYYCARLGSSAVDYWGQGTLVTVSS
VL: DIQMTQSPSSLSASVGDRVTITCKASQSVDYDGDSYMSWYQQKPGKAPKLLIYGASYLESGVPSRFSGSGSGTDFTLTISSLQPEDFATYYCQQNNEDPYTFGQGTKVEIK
B2: 4F11.v10, IgG (antibody, V domains shown)
VH: B1 VH with S102Y
VL: B1 VL
B3: hu18F7.v6J, IgG (antibody, V domains shown)
VH: EVQLVESGGGLVQPGGSLRLSCAASGYTFIDYYMNWVRQAPGKGLEWVGDINLDNSGTHYNQKFKGRFTISRDKSKNTAYLQMNSLRAEDTAVYYCAREGVYHDYDDYAMDYWGQGTLVTVSS
VL: DIQMTQSPSSLSASVGDRVTITCRTSQSLVHINSITYLHWYQQKPGKAPKLLIYRVSNRFSGVPSRFSGSGSGTDFTLTISSLQPEDFATYYCGQSTHVPLTFGQGTKVEIK
notes: Variant of 18F7.v6; Expressed as IgG

How the values were obtained:
[1] = target: EGFL7 coated on plates in the Cell Adhesion Assay (mouse EGFL7 (mEGFL7-CB-His) or human EGFL7 (EGFL7-CB-His)); …; assay: cell-based or functional assay
[2] = target: T1, Mouse EGFL7 (mEGFL7-CB-His); assay: SPR (Biacore) at 37 C, IgG over immobilized mEGFL7-CB

Row | Binder | Cell Adhesion Assay Variant/ch4F11 (fold) [1] | Kd [2]
1 | B1 | 4.01 fold | 
2 | B2 | 4.38 fold | 
3 | B3 |  | 6.8 nM
